Patent US20140255408A1 (Janssen / Centocor, published 2014)
Like-named read-outs stand apart in the source and are kept apart here.

Key:
human c-Met on cells [1] = biological target: T1, human c-Met on cells (human, UniProt P08581 25-1390); assay: cell-based or functional assay
[2] = biological target: T2, Recombinant human c-Met Fc chimera (human, UniProt P08581 16-932); assay: HGF competition assay on coated c-Met-Fc, competitor biotinylated HGF
T2 construct: not shown: Fc part

[3] = biological target: T2, Recombinant human c-Met Fc chimera; assay: SPR (ProteOn), c-Met-Fc captured on anti-human Fc IgG, FN3 domain as analyte
human c-Met on cells [4] = biological target: T1, human c-Met on cells; assay: H441 cell binding assay, anti-His detection
Protocol: Purified FN3 domains (50 μL/well; 0 to 1000 nM) were added to the cells for 1 hour at 4° C. in duplicate plates. […] Cells were incubated with biotinylated-anti HIS antibody (diluted 1:160 in FACS stain buffer, 50 μL/well, R&D Systems, cat #BAM050) for 30 minutes at 4° C. […] Cells were washed three times with FACS stain buffer (150 μL/well) and left in FACS stain buffer (50 μL/well).

human EGFR on cells [5] = biological target: T3, human EGFR on cells (human, UniProt P00533 25-1210); assay: cell-based or functional assay
human c-Met on cells [6] = biological target: T1, human c-Met on cells; assay: cell-based or functional assay; remark: listed apart in the source
[7] = biological target: T4, recombinant human extracellular domain of EGFR fused to an IgG1 Fc (human, UniProt P00533 25-645); assay: SPR (ProteOn), protocol of Example 3, recombinant EGFR extracellular domain
T4 construct: Bought from R&D Systems; The residues are stated for the panning reagent; also called EGFR-Fc; EGF R-Fc; not shown: IgG1 Fc
Protocol: All 6 analyte channels were used for the FN3 domains to maximize screening throughput. The dissociation phase was monitored for 10 minutes at a flow rate of 100 μL/min. The inter-spot binding signals were used as references to monitor non-specific binding between analytes and the immobilized IgG surface, and were subtracted from all binding responses. The processed binding data were locally fit to a 1:1 simple Langmuir binding model to extract the koff for each FN3 domain binding to captured EGFR-Fc.
Binding affinity of selected EGFR-binding FN3 domains to recombinant EGFR extracellular domain was further characterized by surface Plasmon resonance methods using a Proteon Instrument (BioRad). The assay set-up (chip preparation, EGFR-Fc capture) was similar to that described above for off-rate analysis. Selected EGFR binding FN3 domains were tested at 1 μM concentration in 3-fold dilution series in the horizontal orientation. A buffer sample was also injected to monitor the baseline stability. […] Two sets of reference data were subtracted from the response data: 1) the inter-spot signals to correct for the non-specific interactions between the EGFR-binding FN3 domain and the immobilized IgG surface; 2) the buffer channel signals to correct for baseline drifting due to the dissociation of captured EGFR-Fc surface over time. The processed binding data at all concentrations for each FN3 domain were globally fit to a 1:1 simple Langmuir binding model to extract estimates of the kinetic (kₘ, koff) and affinity (KD) constants.

[8] = biological target: T2, Recombinant human c-Met Fc chimera; assay: SPR (ProteOn), protocol of Example 3, recombinant c-Met extracellular domain
human EGFR on cells [9] = biological target: T3, human EGFR on cells; assay: cell-based or functional assay; remark: listed apart in the source

Binder	pMet inhibition in H441 cells (IC50) (human c-Met on cells [1])	IC50 [2]	Kd [3]	Inhibition of Proliferation of U87-MG cells (IC50) (human c-Met on cells [1])	EC50 (human c-Met on cells [4])	H292 pEGFR inhibition in H292 cells (IC50) (human EGFR on cells [5])	pMet inhibition in H441 cells (IC50) (human c-Met on cells [6])	Kd [7]	Kd [8]	Phospho-EGFR IC50 (A431 cells) (human EGFR on cells [9])
P114AR7P95-D3 (designed binder, not shown: small tags and cut ends) LPAPKNLVVSRVTEDSARLSWTAPDAAFDSFWIRYFEFLGSGEAIVLTVPGSERSYDLTGLKPGTEYVVNIMGVKGGSISYPLSAIFTT	4.6 nM	0.2 nM	0.3 nM	–	–	–	–	–	–	–
P114AR7P95-B9 (designed binder, not shown: small tags and cut ends) LPAPKNLVVSRVTEDSARLSWTAPDAAFDSFWIRYFEFLGSGEAIVLTVPGSERSYDLTGLKPGTEYVVQILGVKGGSISVPLSAIFTT	9.8 nM	0.3 nM	–	17.4 nM	–	–	–	–	–	–
P114AR7P93-G8 (designed binder, not shown: small tags and cut ends) LPAPKNLVVSRVTEDSARLSWTAPDAAFDSFWIRYFEFLGSGEAIVLTVPGSERSYDLTDLKPGTEYGVTINGVKGGRVSTPLSAIFTT	460 nM	1 nM	6.9 nM	104 nM	3.8 nM	–	–	–	–	–
P114AR7P95-G7 (designed binder, not shown: small tags and cut ends) LPAPKNLVVSRVTEDSARLSWTAPDAAFDSFWIRYFELLSTGEAIVLTVPGSERSYDLTGLKPGTEYVVNIMGVKGGSISPPLSAIFTT	659 nM	–	20 nM	692 nM	11.3 nM	–	–	–	–	–
P114AR7P92-F3 (designed binder, not shown: small tags and cut ends) LPAPKNLVVSRVTEDSARLSWTAPDAAFDSFWIRYFEFLGSGEAIVLTVPGSERSYDLTGLKPGTEYIVNIMGVKGGSISHPLSAIFTT	8.3 nM	0.2 nM	0.4 nM	2.7 nM	–	–	–	–	–	–
P114AR7P92-H5 (designed binder, not shown: small tags and cut ends) LPAPKNLVVSRVTEDSARLSWTAPDAAFDSFWIRYLEFLLGGEAIVLTVPGSERSYDLTGLKPGTEYVVQIMGVKGGTVSPPLSAIFTT	766 nM	–	11.6 nM	672 nM	22 nM	–	–	–	–	–
P114AR7P95-F10 (designed binder, not shown: small tags and cut ends) LPAPKNLVVSRVTEDSARLSWTAPDAAFDSFWIRYFEFTTAGEAIVLTVPGSERSYDLTGLKPGTEYVVNIMGVKGGSISPPLSAIFTT	188 nM	1.4 nM	4.2 nM	130 nM	4.4 nM	–	–	–	–	–
P114AR7P94-E5 (designed binder, not shown: small tags and cut ends) LPAPKNLVVSRVTEDSARLSWTAPDAAFDSFWIRYFEFLGSGEAIVLTVPGSERSYDLTGLKPGTEYAVNIMGVKGGRVSVPLSAIFTT	124 nM	0.7 nM	4.2 nM	196 nM	3.4 nM	–	–	–	–	–
P114AR7P95-H8 (designed binder, not shown: small tags and cut ends) LPAPKNLVVSRVTEDSARLSWTAPDAAFDSFWIRYFEFVSKGEAIVLTVPGSERSYDLTGLKPGTEYVVNIMGVKGGSISPPLSAIFTT	210 nM	–	3.7 nM	281 nM	4.1 nM	–	–	–	–	–
P114AR7P93-D11 (designed binder, not shown: small tags and cut ends) LPAPKNLVVSRVTEDSARLSWTAPDAAFDSFWIRYFEFLGSGEAIVLTVPGSERSYDLTGLKPGTEYVVGINGVKGGYISYPLSAIFTT	16 nM	–	–	14.4 nM	2.3 nM	–	–	–	–	–
ECB95 (designed binder, not shown: C-terminal poly-histidine tag) MLPAPKNLVVSEVTEDSARLSWDDPWAFYESFLIQYQESEKVGEAIVLTVPGSERSYDLTGLKPGTEYTVSIYGVHNVYKDTNIRGLPLSAIFTTAPAPAPAPAPLPAPKNLVVSRVTEDSARLSWTAPDAAFDSFWIRYFEFVGSGEAIVLTVPGSERSYDLTGLKPGTEYVVNILGVKGGSISPPLSAIFTT	–	–	–	–	–	13.6 nM	179 nM	1.1 nM	6.2 nM	–
ECB15 (designed binder, not shown: C-terminal poly-histidine tag) MLPAPKNLVVSEVTEDSARLSWDDPWAFYESFLIQYQESEKVGEAIVLTVPGSERSYDLTGLKPGTEYTVSIYGVHNVYKDTNMRGLPLSAIFTTAPAPAPAPAPLPAPKNLVVSRVTEDSARLSWTAPDAAFDSFWIRYFEFLGSGEAIVLTVPGSERSYDLTGLKPGTEYVVNIMGVKGGKISPPLSAIFTT	–	–	–	–	–	4.2 nM	–	0.2 nM	2.6 nM	–
ECB94 (designed binder, not shown: C-terminal poly-histidine tag) MLPAPKNLVVSEVTEDSARLSWDDPWAFYESFLIQYQESEKVGEAIVLTVPGSERSYDLTGLKPGTEYTVSIYGVHNVYKDTNIRGLPLSAIFTTAPAPAPAPAPLPAPKNLVVSRVTEDSARLSWTAPDAAFDSFWIRYFEFLGSGEAIVLTVPGSERSYDLTGLKPGTEYVVNILGVKGGKISPPLSAIFTT	–	–	–	–	–	5.1 nM	53.8 nM	1 nM	4.3 nM	–
P54AR4-47 (designed binder) LPAPKNLVVSEVTEDSLRLSWWDPFSFYDSFLIQYQESEKVGEAINLTVPGSERSYDLTGLKPGTEYTVSIYGVHNVYKDTNMRGLPLSAEFTT	–	–	–	–	–	–	–	–	–	295 nM

Now from value to binder:

pMet inhibition in H441 cells (IC50) (human c-Met on cells [1])	IC50 [2]	Kd [3]	Inhibition of Proliferation of U87-MG cells (IC50) (human c-Met on cells [1])	EC50 (human c-Met on cells [4])	H292 pEGFR inhibition in H292 cells (IC50) (human EGFR on cells [5])	pMet inhibition in H441 cells (IC50) (human c-Met on cells [6])	Kd [7]	Kd [8]	Phospho-EGFR IC50 (A431 cells) (human EGFR on cells [9])	Binder
19.5 nM	–	0.4 nM	19.4 nM	1.4 nM	–	–	–	–	–	P114AR7P95-D4 (designed binder, not shown: small tags and cut ends) LPAPKNLVVSRVTEDSARLSWTAPDAAFDSFWIRYFEFLGSGEAIVLTVPGSERSYDLTGLKPGTEYVVQILGVKGGYISIPLSAIFTT
165 nM	2.2 nM	3.1 nM	350 nM	4.9 nM	–	–	–	–	–	P114AR7P92-F6 (designed binder, not shown: small tags and cut ends) LPAPKNLVVSRVTEDSARLSWTAPDAAFDSFWIRYFEFLGSGEAIVLTVPGSERSYDLTGLKPGTEYVVNILGVKGGGLSVPLSAIFTT
155 nM	1.6 nM	1 nM	124 nM	5.9 nM	–	–	–	–	–	P114AR7P92-G8 (designed binder, not shown: small tags and cut ends) LPAPKNLVVSRVTEDSARLSWTAPDAAFDSFVIRYFEFLGSGEAIVLTVPGSERSYDLTGLKPGTEYVVQILGVKGGYISIPLSAIFTT
5 nM	0.2 nM	0.4 nM	9.3 nM	1.4 nM	–	–	–	–	–	P114AR7P94-A3 (designed binder, not shown: small tags and cut ends) LPAPKNLVVSRVTEDSARLSWTAPDAAFDSFWIRYFEFLGSGEAIVLTVPGSERSYDLTGLKPGTEYVVNIMGVKGGKISPPLSAIFTT
288 nM	2.9 nM	3.3 nM	270 nM	12.9 nM	–	–	–	–	–	P114AR7P93-H9 (designed binder, not shown: small tags and cut ends) LPAPKNLVVSRVTEDSARLSWTAPDAAFDSFWIRYFEFLGSGEAIVLTVPGSERSYDLTGLKPGTEYVVQIIGVKGGHISLPLSAIFTT
1.42 µM	51.9 nM	45.8 nM	1190 nM	–	–	–	–	–	–	P114AR5P75-E9 (designed binder, not shown: small tags and cut ends) LPAPKNLVVSRVTEDSARLSWTAPDAAFDSFFIRYDEFLRSGEAIVLTVPGSERSYDLTGLKPGTEYWVTILGVKGGLVSTPLSAIFTT
205 nM	–	–	209 nM	3.2 nM	–	–	–	–	–	P114AR7P95-E3 (designed binder, not shown: small tags and cut ends) LPAPKNLVVSRVTEDSARLSWTAPDAAFDSFWIRYFEFLGSGEAIVLTVPGSERSYDLTGLKPGTEYVVQIMGVKGGTVSPPLSAIFTT
